The data set deals with the molecule itself. The experiment in a line: negative-stain electron microscopy (2D classification, 3D reconstruction).

B1: FHV protein A H93A, C-terminal alfa tag (natural protein)
chain: MTLKVILGEHQITRTELLVGIATVSGCGAVVYCISKFWGYGAIAPYPQSGGNRVTRALQRAVIDKTKTPIETRFYPLDSLRTVTPKRVADNGAAVSGAVRDAARRLIDESITAVGGSKFEVNPNPNSSTGLRNHFHFAVGDLAQDFRNDTPADDAFIVGVDVDYYVTEPDVLLEHMRPVVLHTFNPKKVSGFDADSPFTIKNNLVEYKVSGGAAWVHPVWDWCEAGEFIASRVRTSWKEWFLQLPLRMIGLEKVGYHKIHHCRPWTDCPDRALVYTIPQYVIWRFNWIDTELHVRKLKRIEYQDETKPGWNRLEYVTDKNELLVSIGREGEHAQITIEKEKLDMLSGLSATQSVNARLIGMGHKDPQYTSMIVQYYTGKKVVSPISPTVYKPTMPRVHWPVTSDADVPEVSARQYTLPIVSDCMMMPMIKRWETMSESIERRVTFVANDKKPSDRIAKIAETFVKLMNGPFKDLDPLSIEETIERLNKPSQQLQLRAVFEMIGVKPRQLIESFNKNEPGMKSSRIISGFPDILFILKVSRYTLAYSDIVLHAEHNEHWYYPGRNPTEIADGVCEFVSDCDAEVIETDFSNLDGRVSSWMQRNIAQKAMVQAFRPEYRDEIISFMDTIINCPAKAKRFGFRYEPGVGVKSGSPTTTPHNTQYNGCVEFTALTFEHPDAEPEDLFRLIGPKCGDDGLSRAIIQKSINRAAKCFGLELKVERYNPEIGLCFLSRVFVDPLATTTTIQDPLRTLRKLHLTTRDPTIPLADAACDRVEGYLCTDALTPLISDYCKMVLRLYGPTASTEQVRNQRRSRNKEKPYWLTCDGSWPQHPQDAHLMKQVLIKRTAIDEDQVDALIGRFAAMKDVWEKITHDSEESAAACTFDEDGVAPNSVDESLPMLNDAKQTRANPGTSRPHSNGGGSSHGNELPRRTEQRAQGPRQPARLPKQGKTNGKSDGNITAGETQRGGIPRGKGPRGGKTNTRRTPPKAGAQPQPSNNRK
notes: also called RNA capping null mutant H93A; not shown: ALFA tag, C-terminal, kept
Take B1: the binding result is “binds”.

B2: FHV protein A D692E, C-terminal alfa tag (natural protein)
chain: MTLKVILGEHQITRTELLVGIATVSGCGAVVYCISKFWGYGAIAPYPQSGGNRVTRALQRAVIDKTKTPIETRFYPLDSLRTVTPKRVADNGHAVSGAVRDAARRLIDESITAVGGSKFEVNPNPNSSTGLRNHFHFAVGDLAQDFRNDTPADDAFIVGVDVDYYVTEPDVLLEHMRPVVLHTFNPKKVSGFDADSPFTIKNNLVEYKVSGGAAWVHPVWDWCEAGEFIASRVRTSWKEWFLQLPLRMIGLEKVGYHKIHHCRPWTDCPDRALVYTIPQYVIWRFNWIDTELHVRKLKRIEYQDETKPGWNRLEYVTDKNELLVSIGREGEHAQITIEKEKLDMLSGLSATQSVNARLIGMGHKDPQYTSMIVQYYTGKKVVSPISPTVYKPTMPRVHWPVTSDADVPEVSARQYTLPIVSDCMMMPMIKRWETMSESIERRVTFVANDKKPSDRIAKIAETFVKLMNGPFKDLDPLSIEETIERLNKPSQQLQLRAVFEMIGVKPRQLIESFNKNEPGMKSSRIISGFPDILFILKVSRYTLAYSDIVLHAEHNEHWYYPGRNPTEIADGVCEFVSDCDAEVIETDFSNLDGRVSSWMQRNIAQKAMVQAFRPEYRDEIISFMDTIINCPAKAKRFGFRYEPGVGVKSGSPTTTPHNTQYNGCVEFTALTFEHPDAEPEDLFRLIGPKCGEDGLSRAIIQKSINRAAKCFGLELKVERYNPEIGLCFLSRVFVDPLATTTTIQDPLRTLRKLHLTTRDPTIPLADAACDRVEGYLCTDALTPLISDYCKMVLRLYGPTASTEQVRNQRRSRNKEKPYWLTCDGSWPQHPQDAHLMKQVLIKRTAIDEDQVDALIGRFAAMKDVWEKITHDSEESAAACTFDEDGVAPNSVDESLPMLNDAKQTRANPGTSRPHSNGGGSSHGNELPRRTEQRAQGPRQPARLPKQGKTNGKSDGNITAGETQRGGIPRGKGPRGGKTNTRRTPPKAGAQPQPSNNRK
notes: also called RNA polymerase null mutant D692E; not shown: ALFA tag, C-terminal, kept
Consider B2, for which the binding result is reported as “binds”.
